Numbering of substitutions follows the chain as printed. In names and notes the source's numbering stands. Several values for one entry are separate records, joined by “and”; a condition that tells them apart may be missing. Identical values can stand only once.

4 proteins from patent US20040018603 can be followed below.

The target of data set [1] is GST-Cdc25[254-316]-WT (62-amino acid region of Xenopus Cdc25 fused to glutathione S-transferase).

B1: His6-Xcds1 (histidine-tagged Xcds1 purified from E. coli) (protein)
chain: MMSRDTKTESQQSQGTSSSSSSSAPQSYSQSSSSGTLSSLDTVPVQDLASIPEDPEIDEDIPQPWGRLWALGKGFLNHDCLHEEYVFGRDKKCDYTFDIPVLNQTDRYKTYSKRHFRIFQELGHGHSRVANIEDLSGNGTFVNKEIIGKGRTLPLTNNAEIALSLPTNKVFVFSDLSVDDQTIYPKDFIDKYIMSRPIGSGACGEVKLAFQKSVCKKVAVKIISKRKFKMNTSSNEHPISVDTEIEILKKLDHPCIIKIENFFDSEDFYYIVLELMEGGELFDRVVNSTRLREPIAKLYFYQMLLAVQYLHENGVIHRDLKPENVLLSSTSEECCIKITDFGQSKILGETSLMRTLCGTPTYLAPEVLNTAGTTGYSSAVDCWSLGVILFVCLCGYPPFSEQNSNIPLKNQIAEGKYTYIAAAWRNVSEQAFDLVKNLLVVDPEQRLTTKQALEHPWLQDDSMKHTVERLMYGVDHTMPPPIKKNIIRKRGHEWDQDASTSSCSEILPTSAEKRAKR
As to B1, the “phosphorylation in kinase assay with 32P-ATP (SDS-PAGE, PhosphorImager)” value in data set [1] is “His6-Xcds1, but not a catalytically inactive mutant (His6-Xcds1-N324A), phosphorylated a 62-amino acid region of Xenopus Cdc25 fused to glutathione S-transferase (GST-Cdc25[254-316]-WT)”; with GST-Cdc25[254-316]-S287A, “a serine-to-alanine mutation at this position abolished the phosphorylation”.

B2: His6-Xcds1-N324A (catalytically inactive mutant) (protein)
chain: B1 chain with N324A
Take B2: the “phosphorylation in kinase assay with 32P-ATP (SDS-PAGE, PhosphorImager)” value in data set [1] is “but not a catalytically inactive mutant (His6-Xcds1-N324A)”.

B3: Hyperphosphorylated Xcds1 protein immunoprecipitated from egg extracts containing poly(dT)40 (protein)
chain: B1 chain
In the case of B3, the kinase activity of the immunoprecipitate, increase over background in data set [1] was 5 fold and 6 fold.

B4: Xenopus laevis protein kinase Cds1 (Xcds1), endogenous protein in Xenopus egg extracts (protein)
chain: B1 chain
In the case of B4, the “kinase activity of the immunoprecipitate” value in data set [1] is recorded as “endogenous Xcds1 immunoprecipitated from egg extracts phosphorylated this substrate well”.
